Results taken from the supplement of paper PMC10567573.
± gives the standard deviation.

Test: protein stability index of a GFP-peptide fusion (GPS, HEK-293T) (PSI 1-6); higher = more stable
[1] = treatment: DMSO, c terminus: a fixed tail appended
[2] = treatment: MLN4924 1 uM, 8 h, c terminus: a fixed tail appended
[3] = treatment: DMSO, c terminus: native
[4] = treatment: MLN4924 1 uM, 8 h, c terminus: native
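Also: 24-mer peptide tiles fused after GFP, lentivirally expressed, FACS-sorted into six equal bins by GFP/DsRed ratio, decoded by Illumina sequencing, PSI is the read-weighted mean bin number.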

| Sequence | protein stability index [1] | protein stability index [2] | protein stability index [3] | protein stability index [4] |
| --- | --- | --- | --- | --- |
| QTESELQELSEVLELLSAPELKSL [FAN1] | 4.1 ± 0.19 | 4.11 ± 0.11 | – | – |
| QTNSETAVVALTQDQPSEAATGGA [HDAC6] | 5.31 ± 0.2 | 5.42 ± 0.062 | – | – |
| QTVDGKHQDLKYISPETMVALLTG [CDC25B] | 2.77 ± 0.43 | 2.8 ± 0.33 | – | – |
| QTVGVGRGRFTTYEIRVKTNLPIF [SNX3] | 2.83 ± 0.067 | 3.02 ± 0.22 | – | – |
| QTWVRDHHPENGEEAVTVLEDLES [ZNF24] | 5.34 ± 0.21 | 5.43 ± 0.17 | – | – |
| QVSPVRRAPSRRHGVRAKVQPQAR [CPN1] | 4.88 ± 0.12 | 4.68 ± 0.13 | – | – |
| QVYYFGPCGKYNAMVLELLGPSLE [CSNK1G1] | 3.52 ± 1.8 | 1.92 ± 0.25 | – | – |
| QWLKDKILSEEGRRQQAKLKELQA [KCNAB2] | 3.13 ± 0.56 | 3.32 ± 0.13 | – | – |
| QYPGNYEQQQILIRQLQEQHYQQY [ACBD3] | 3.17 ± 0.26 | 3.24 ± 0.18 | – | – |
| QYQYERYGAVELSGAGRRKNATRE [IRX6] | 4.5 ± 0.39 | 4.54 ± 0.32 | – | – |
| RAACFDGHLEVVRYLVGEHQADLE [FEM1A] | 3.31 ± 0.27 | 3.39 ± 0.25 | – | – |
| RAKEEERLNKLRLESEGSPETLTN [HACD3] | 5.38 ± 0.23 | 5.28 ± 0.26 | – | – |
| RALDRLQEVPHEGPMCDLLWSDPD [PPP2CA] | 4.42 ± 0.34 | 4.66 ± 0.17 | – | – |
| RALQAALAESGGSPDVLQMLKIHR [TRADD] | 2.61 ± 0.34 | 2.91 ± 0.25 | – | – |
| RAMRYYYKREILERVDGRRLVYKF [ELF3] | 2.49 ± 0.15 | 2.63 ± 0.41 | – | – |
| RASATTTITTAAATSVTVPGAGVP [ZBTB22] | 4.49 ± 0.19 | 4.45 ± 0.3 | – | – |
| RASPTRTAPLPMPEGPEPAAPGKQ [ELOA2] | 5.4 ± 0.14 | 5.66 ± 0.1 | – | – |
| RCHTVPCAGSTALQEPGEPQGPPA [PXN] | 4.89 ± 0.15 | 4.92 ± 0.25 | – | – |
| RDFAETHNCVDLMQAAEVFSQKHF [KLHL12] | 3.31 ± 0.23 | 3.21 ± 0.49 | – | – |
| RDHHSTHYRASEEEPEYGEEIKGY [CHGB] | 5.1 ± 0.25 | 5.05 ± 0.13 | – | – |
| RDHIPRGKEELESLGGGKTPPGR [MOG] | – | – | 3.87 ± 0.1 | 4.09 ± 0.42 |
| RDTTGVSQMFPSSKARTKSLLGDD [FBF1] | 4.83 ± 0.056 | 4.82 ± 0.14 | – | – |
| REDITEPAICALRHLTSRHQEAEM [CTNNB1] | 4.58 ± 0.41 | 4.4 ± 0.43 | – | – |

| Sequence | protein stability index [1] | protein stability index [2] | protein stability index [3] | protein stability index [4] |
| --- | --- | --- | --- | --- |
| REDNSGSDVLIGDILVLLGASLYA [SLC35F2] | 2.79 ± 0.18 | 2.99 ± 0.61 | – | – |
| REEQQLLASTSKPVVKLLHNRSNN [KCTD13] | 4.75 ± 0.23 | 4.89 ± 0.14 | – | – |
| REEVRGRELTGLKALYETELADAR [LMNB1] | 4.97 ± 0.2 | 4.83 ± 0.27 | – | – |
| RENSKPRAILKPRKVCVGGKRRKD [PPP2R2B] | 4.73 ± 0.35 | 4.89 ± 0.34 | – | – |
| RERFMECLMIGRDLVRLLQNVARI [INTS3] | 2.31 ± 0.28 | 2.54 ± 0.31 | – | – |
| RERIERVRRIHIKRPDDRAHLHQ [KCTD10] | – | – | 4.2 ± 0.36 | 4.51 ± 0.35 |
| RFHDPSPAQSHTLQANDVFHKQQW [NET1] | 3.33 ± 0.11 | 3.4 ± 0.29 | – | – |
| RFQDGDNILEKEVLPPIHAYGNRT [FEM1B] | 3.96 ± 0.14 | 4.001 ± 0.01 | – | – |
| RFQLLYVACGMVHLLIPELGACVA [DNAAF3] | 2.97 ± 0.17 | 3.39 ± 0.44 | – | – |
| RIYSYQMALTPVVVTLWYRAPEVL [CDK4] | 2.98 ± 0.12 | 2.77 ± 0.47 | – | – |
| RIYVLGGGTSWTAYSLNKIHAYNL [KLHDC10] | 2.42 ± 0.41 | 2.61 ± 0.67 | – | – |
| RKGELVTASKAIIEKEYQPHVIVS [ADD1] | 3.62 ± 0.18 | 3.97 ± 0.21 | – | – |
| RKKEAKRKISSLSFTLEEEEEGGE [FAM50A] | 5.33 ± 0.41 | 5.67 ± 0.41 | – | – |
| RKLSQGILIIRFEMPYNIWCDGCK [YJU2B] | 2.57 ± 0.62 | 3.3 ± 0.79 | – | – |
| RKPGMSSTARRSRAASSQRAEEED [CHMP4C] | 5.38 ± 0.17 | 5.41 ± 0.25 | – | – |
| RKQARQLENELDLKLVSFSKLCTS [GOSR1] | 3.03 ± 0.34 | 3.22 ± 0.54 | – | – |
| RKTVCHNGVLGLSRLLFFLLGFLR [LPCAT4] | 2.92 ± 0.35 | 3.04 ± 0.38 | – | – |
| RLDASTSHQNLRVDDLSVEWDAMG [FSD1] | 4.51 ± 0.34 | 4.62 ± 0.34 | – | – |
| RLIEVEDMMVMGRKPDPMCVFTYV [SMTNL2] | 2.38 ± 0.37 | 2.59 ± 0.41 | – | – |
| RLKLMQQNPAGELEGFQAQGHPPS [ATE1] | 4.29 ± 0.18 | 4.31 ± 0.12 | – | – |
| RLPGGGWTLRRTKELRKDYQGPGT [DYRK1B] | 3.14 ± 0.26 | 3.43 ± 0.35 | – | – |
| RMDTPPPEERLEKQNEKLNNQEEE [CCDC89] | 5.55 ± 0.29 | 5.48 ± 0.28 | – | – |
| RMEEIVEGCTGALHILARDVHNRI [CTNNB1] | 2.74 ± 0.19 | 2.89 ± 0.28 | – | – |

| Sequence | protein stability index [1] | protein stability index [2] | protein stability index [3] | protein stability index [4] |
| --- | --- | --- | --- | --- |
| RMLEFDPAQRITLAEALLHPFFAG [CLK3] | 2.38 ± 0.25 | 2.39 ± 0.19 | – | – |
| RPATAADCSDILRLIKELAKYEYM [SAT1] | 2.06 ± 0.14 | 2.48 ± 0.18 | – | – |
| RQAELLEKRLQEIEELEREAERKI [SRPK2] | 5.13 ± 0.32 | 5.18 ± 0.14 | – | – |
| RQITQVYGFYDECLRKYGNANVWK [PPP2CA] | 2.19 ± 0.33 | 2.33 ± 0.26 | – | – |
| RQLDPSNCLGIRAFADTHSCRELL [KLHL20] | 3.07 ± 0.32 | 3.23 ± 0.3 | – | – |
| RQNVPRKVPNHYIAIPEWFLSENA [CPXM2] | 2.82 ± 0.23 | 3.05 ± 0.5 | – | – |
| RQRLAKNDRGDHYHWKDLNRGINI [EFHC1] | 2.96 ± 0.46 | 2.99 ± 0.21 | – | – |
| RRHPGLGKAFPSGCSAVSEPASES [TRAF3IP2] | 4.31 ± 0.18 | 4.3 ± 0.41 | – | – |
| RRSTTDLRGTQFDYERGKGESTED [ZSWIM9] | 5.57 ± 0.17 | 5.53 ± 0.15 | – | – |
| RSEALAVDGAGKPGAEEAQDPEGK [CHGA] | 5.61 ± 0.15 | 5.561 ± 0.045 | – | – |
| RTAQSEETRVWHRRDGKWQIVHFH [CAMK2A] | 3.15 ± 0.16 | 3.12 ± 0.26 | – | – |
| RTSSGNVWVTHEEMETLETSTKTD [PPFIA4] | 5.24 ± 0.35 | 4.99 ± 0.06 | – | – |
| RVDFEEFVELIGPKLREETAHMLG [CABP4] | 2.58 ± 0.25 | 2.73 ± 0.39 | – | – |
| RVDHGAEIITQSPGRSSVASPRRL [MAP2] | 4.45 ± 0.13 | 4.71 ± 0.17 | – | – |
| RVILEIDNARLAVDDFRLKYENEL [KRT13] | 2.4 ± 0.25 | 2.66 ± 0.45 | – | – |
| RVLFIKDVIGDEICCWSFYGQGRK [KCTD10] | 1.89 ± 0.51 | 2.38 ± 0.23 | – | – |
| RVLRQPRPALAQQAQGARAGGSAR [GMCL1] | 5.03 ± 0.23 | 4.93 ± 0.19 | – | – |
| RVSNPGRLAELLLLETDAGPAASE [GADD45A] | 4.46 ± 0.28 | 4.28 ± 0.26 | – | – |
| RVVDGTPCSPDSSSVCVQGRCIHA [ADAMTS4] | 4.21 ± 0.35 | 4.39 ± 0.16 | – | – |
| RWMGLACFRSLAASSPSIRQKKLM [CCDC70] | 2.29 ± 0.61 | 2.29 ± 0.4 | – | – |
| RYRGLGLLASVPSNPNGNGGFMGY [CRY1] | 2.53 ± 0.14 | 2.91 ± 0.19 | – | – |
| SAPHLENSGHTIFNDPFFIVETVC [KCNA4] | 2.43 ± 0.23 | 2.46 ± 0.38 | – | – |
| SATNVTCYYQPAPYVSDGNFSNYY [TENT5C] | 2.05 ± 0.29 | 2.14 ± 0.28 | – | – |

| Sequence | protein stability index [1] | protein stability index [2] | protein stability index [3] | protein stability index [4] |
| --- | --- | --- | --- | --- |
| SCCMTEEIFGPVTCVVPFDSEEEV [ALDH8A1] | 4.71 ± 0.34 | 4.83 ± 0.27 | – | – |
| SCRELLRIADKFTQHNFQEVMESE [KLHL20] | 2.17 ± 0.14 | 2.19 ± 0.06 | – | – |
| SDAEAVSTRWEVIAEDGTKEIESQ [TAF7L] | 5.42 ± 0.12 | 5.48 ± 0.31 | – | – |
| SEAAIGGAMLGQTTSEEAVGGATP [HDAC6] | 5.31 ± 0.26 | 5.4 ± 0.17 | – | – |
| SEALASTRILKHSPESSRGQCGEN [GLIPR2] | 5.29 ± 0.21 | 4.93 ± 0.25 | – | – |
| SEEAVQKLATCYFFTVEFGLCKQD [TPH1] | 2.3 ± 0.61 | 2.27 ± 0.13 | – | – |
| SEIPRGVRVALDYEAGQVTLHNAQ [TRIM15] | 4.45 ± 0.35 | 4.57 ± 0.11 | – | – |
| SEKAMLRSRIEEQSQLICILKRRS [CCDC89] | 3.07 ± 0.2 | 3.19 ± 0.15 | – | – |
| SELRTKVQEQQKQLQDQDQKLLEQ [FBXO28] | 5.5 ± 0.19 | 5.481 ± 0.034 | – | – |
| SESRKPTVSIMEPGETRRNSYPRA [TRIM29] | 4.79 ± 0.12 | 4.43 ± 0.19 | – | – |
| SESSLEMDDERYFNEMSAQGLRPR [CCDC6] | 4.78 ± 0.2 | 4.85 ± 0.22 | – | – |
| SFAQLKNLKWLDLKDNPLDPVLAK [LRRC59] | 2.98 ± 0.096 | 2.96 ± 0.33 | – | – |
| SFMPLVIKVTSATSVNLGILTADL [SLC35F2] | 2.7 ± 1 | 2.87 ± 0.49 | – | – |
| SFRQGMHLTRHQRTHTGEKPYKCT [ZNF263] | 3.57 ± 0.65 | 3.7 ± 0.49 | – | – |
| SGAGGTGGPAGQAGRGGAAGTAGV [MYOZ1] | 5.07 ± 0.2 | 4.93 ± 0.17 | – | – |
| SGNDPFAPSEGSAEAAPELDLFAM [SNAP91] | 4.83 ± 0.2 | 4.89 ± 0.23 | – | – |
| SGRSGHNTRGTGSSSSGVLMVGPN [CSNK1G3] | 4.13 ± 0.24 | 4.18 ± 0.16 | – | – |
| SGTCSPLRHSFQKQQREKTRWLNS [ADD1] | 2.96 ± 0.26 | 3.11 ± 0.059 | – | – |
| SGYALAEDGKRCVAVDYCASENHG [MATN2] | 4.28 ± 0.64 | 4.36 ± 0.21 | – | – |
| SHSNITGIVEVILGETKAYVFFEK [TRIB1] | 2.41 ± 1 | 1.9 ± 0.58 | – | – |
